Measured values: patent publication US20070224662

Target: inactive (non-phosphorylated) HIS-tagged MAPK14
Sequence (chain, as listed by the source): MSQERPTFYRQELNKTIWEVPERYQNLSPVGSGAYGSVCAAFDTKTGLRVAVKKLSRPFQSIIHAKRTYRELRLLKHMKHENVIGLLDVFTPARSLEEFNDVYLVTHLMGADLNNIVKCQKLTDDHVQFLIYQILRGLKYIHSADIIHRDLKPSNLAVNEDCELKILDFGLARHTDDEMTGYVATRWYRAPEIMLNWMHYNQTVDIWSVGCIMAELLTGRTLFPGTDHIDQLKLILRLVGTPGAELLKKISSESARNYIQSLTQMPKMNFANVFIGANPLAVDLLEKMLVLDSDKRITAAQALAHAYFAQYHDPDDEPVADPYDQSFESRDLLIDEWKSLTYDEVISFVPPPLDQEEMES

B1: MKK6 (no-tag upstream kinase) (protein)
chain: MSQSKGKKRNPGLKIPKEAFEQPQTSSTPPRDLDSKACISIGNQNFEVKADDLEPIMELGRGAYGVVEKMRHVPSGQIMAVKRIRATVNSQEQKRLLMDLDISMRTVDCPFTVTFYGALFREGDVWICMELMDTSLDKFYKQVIDKGQTIPEDILGKIAVSIVKALEHLHSKLSVIHRDVKPSNVLINALGQVKMCDFGISGYLVDSVAKTIDAGCKPYMAPERINPELNQKGYSVKSDIWSLGITMIELAILRFPYDSWGTPFQQLKQVVEEPSPQLPADKFSAEFVDFTSQCLKKNSKERPTYPELMQHPFFTLHESKGTDVASFVKLILGD
amount of phosphorylated MAPK14, Western blot with the p38 antibody, at decreasing MKK6 plasmid (FIG. 3): as the concentration of the MKK6 plasmid present in the reaction was decreased, the amount of phosphorylation MAPK14 similarly decreased | phosphorylation of MAPK14, Western blot with anti-phospho-p38 antibody (FIG. 2): co-expression of MAPK14 with MKK6 in the presence of an HEK 293 cell extract greatly enhances the phosphorylation of proteins present in the reaction
